The values that follow come from patent CN113461818A (UNIV XUZHOU MEDICAL, dated 2021).

For the assay, the target named is T1, CD276抗原 (UniProt Q5ZPR3 29-466, limits assumed).
T1 construct: also called CD276靶抗原; CD276目的蛋白
T1 sequence (looked up): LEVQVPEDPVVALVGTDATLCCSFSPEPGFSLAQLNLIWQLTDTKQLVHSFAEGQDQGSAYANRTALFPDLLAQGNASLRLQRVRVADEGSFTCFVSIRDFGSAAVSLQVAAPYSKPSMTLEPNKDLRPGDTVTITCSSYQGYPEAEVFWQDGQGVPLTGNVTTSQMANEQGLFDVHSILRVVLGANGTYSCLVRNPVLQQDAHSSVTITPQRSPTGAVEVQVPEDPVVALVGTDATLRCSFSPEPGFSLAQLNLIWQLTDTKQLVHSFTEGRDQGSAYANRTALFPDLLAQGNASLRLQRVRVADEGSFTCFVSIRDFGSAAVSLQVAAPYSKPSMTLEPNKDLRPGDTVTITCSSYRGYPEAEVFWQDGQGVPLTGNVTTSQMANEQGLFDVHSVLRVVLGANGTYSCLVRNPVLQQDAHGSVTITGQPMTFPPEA
As to the kind of experiment: phage ELISA on coated antigen, TMB, OD450nm. On the technique in general: ELISA stands for enzyme-linked immunosorbent assay.

B1: CD276-03 monoclonal phage (clone 03 scFv displayed on phage) (scFv)
scFv: QVQLVQSGGGVVQPGRSLRLSCSASGFTFNSHGMHWVRQAPGKGLEWVGVIWYDGSNAYYADSAKGRFTISRDNSKNSVYLQLNSLGVEDTALYYCAKSDRPHPMGFYYYMDVWGQGTTVTVSSGGGGSGGGGSQSALTQPASVSGSPGQSITISCTGTSSDVGGYNYVSWYQQHPGKAPKLMIYDVSNRPSGVSNRFSGSKSGNTASLTISGLQAEDEADYYCSSYTSSSTLVFGGGTK
notes: The phage coat protein fusion partner is not described; also called 克隆03
For the molecule B1, the binding result is given as “no binding”.
